Source: patent US20260042834A1 (HBM ALPHA THERAPEUTICS, published 2026)
Where “and” joins values, the source holds several entries; their conditions need not be identical. Equal entries are not always repeated. Blank lines part the entries; values can stand above or below the binder they belong to.

Key:
human UCN2 peptide [1] = molecular target: T1, human UCN2 peptide (human, UniProt Q96RP3 72-109, limits assumed, not fully specified; biotin at N- or C-terminus in the ELISA); assay: ELISA, biotinylated hUCN2 on streptavidin plates
T1 construct: also called hUCN2; hUCN2 (NT Biotin)
T1 peptide (looked up): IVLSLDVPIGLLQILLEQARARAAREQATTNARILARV
Protocol: (§1) Streptavidin (Thermo, Cat: 21125) was diluted in PBS with a concentration of 2 μg/mL. 100 μL of diluted streptavidin was added per well to ELISA microplates, and the plates were incubated overnight at 4° C. Plates were blocked with ELISA blocking solution (containing 2% w/v BSA, 0.05% (v/v) Tween-20, pH 7.4 PBS buffer) at 37° C. for 1 hour, and then incubated with either 1 μg/mL hUCN1 (NT Biotin), hUCN1 (CT Biotin), hUCN2 (NT Biotin), hUCN2 (CT Biotin), hUCN3 (NT Biotin), or hUCN3 (CT Biotin) for 1 hour at 37° C. […] 100 μl of TMB Substrate (Biopanda, Cat: TMB-S-003) was added, and the plates were incubated at room temperature for 15 minutes. 100 μL of ELISA stopping solution (Solarbio, Cat #: C1058) was then added to terminate the reaction, and the OD450 nm was determined by an ELISA plate reader (Molecular Devices, Spectra max 384 plus).

human UCN3 peptide = molecular target: T2, human UCN3 peptide (human, UniProt Q969E3 120-157, not fully specified; biotin at N- or C-terminus in the ELISA); assay: ELISA, biotinylated hUCN3 on streptavidin plates
T2 construct: also called hUCN3; hUCN3 (NT Biotin)
T2 peptide (looked up): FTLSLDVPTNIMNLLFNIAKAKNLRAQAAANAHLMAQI
Protocol: as §1

[2] = molecular target: T3, corticotropin-releasing hormone (CRH) peptide (human and mouse (same sequence), not fully specified); assay: cell-based or functional assay
T3 peptide: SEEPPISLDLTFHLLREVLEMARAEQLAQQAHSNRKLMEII

[3] = molecular target: T4, corticotropin-releasing hormone (CRH) peptide (human and mouse, not fully specified); assay: cell-based or functional assay
T4 peptide: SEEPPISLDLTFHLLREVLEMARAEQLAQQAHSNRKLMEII

CRH (NT Biotin) = molecular target: T5, CRH (NT Biotin) (human and mouse, not fully specified; biotin at the N-terminus); assay: ELISA, biotin peptide on streptavidin plate
T5 peptide: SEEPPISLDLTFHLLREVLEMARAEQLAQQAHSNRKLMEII
Protocol: (§2) Streptavidin (Thermo, Cat: 21125) was diluted in PBS to a concentration of 2 μg/ml. 100 μl of diluted streptavidin was added per well to ELISA microplates, and the plates were incubated overnight at 4° C. […] 100 μL of 3,3′,5,5′-tetramethylbenzidine (TMB) substrate (Biopanda, Cat: TMB-S-003) was added, and the plates were incubated at room temperature for 15 minutes. 100 μL of ELISA stopping solution (Solarbio, Cat #: C1058) was added to terminate the reaction, and the optical density at 450 nm (OD450 nm) was determined by an ELISA plate reader (Molecular Devices, Spectra max 384 plus).

CRH (CT Biotin) = molecular target: T6, CRH (CT Biotin) (human and mouse, C-terminal K-Biotin); assay: ELISA, biotin peptide on streptavidin plate
T6 construct: also called Peptide 4 (CRH-Biotin)
T6 peptide: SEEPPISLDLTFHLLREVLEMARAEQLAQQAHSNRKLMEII
Protocol: as §2

hUCN1 (NT Biotin) = molecular target: T7, hUCN1 (NT Biotin) (human, UniProt P55089 83-122, biotin at the N-terminus); assay: ELISA, biotin peptide on streptavidin plate
T7 construct: also called human UCN1 (NT biotin)
T7 peptide (looked up): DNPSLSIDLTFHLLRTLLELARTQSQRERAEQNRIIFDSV
Protocol: as §2

hUCN1 (CT Biotin) = molecular target: T8, hUCN1 (CT Biotin) (human, UniProt P55089 83-122, biotin at the C-terminus); assay: ELISA, biotin peptide on streptavidin plate
T8 construct: also called human UCN1 (CT biotin)
T8 peptide (looked up): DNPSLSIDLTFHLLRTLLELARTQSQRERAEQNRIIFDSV
Protocol: as §2

human UCN1 peptide = molecular target: T9, human UCN1 peptide (human, UniProt P55089 83-122); assay: cell-based or functional assay
T9 peptide (looked up): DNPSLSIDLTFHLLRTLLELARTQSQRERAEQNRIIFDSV

biotinylated CRH = molecular target: T10, biotinylated CRH (human and mouse, not fully specified; biotinylated, position not stated); assay: Octet BLI, biotinylated CRH on SA sensor
T10 construct: also called Biotin-CRH; biotin-labeled CRH
T10 peptide: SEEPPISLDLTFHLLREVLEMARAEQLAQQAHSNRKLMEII

human UCN2 peptide [4] = molecular target: T1, human UCN2 peptide; assay: ELISA on streptavidin-captured hUCN2 (NT biotin) and hUCN2 (CT biotin), mAb at 100 nM and 10 nM; axis labelled RLU, scale 0-4
Protocol: as §1

B1: PR303394 (antibody, human IgG1, kappa, V domains shown)
VH: EVQLQQSGPELVKPGVSMKISCKASGYSFTDSTMNWVKQSHGKNLEWIGLIHPDNGGTIYNQKFKGKATLTVHKSSSTAYMELLSLTSEDSAVYYCANGFAYWGQGTLVTVSA
VL: DVVMTQTPLSLPVSLGDQASISCRSSQSLLHSNGNTYLHWYLQKPGQSPELLIYKVSNRFSGVPDRFSGSGSGTDFTLKISRVEAEDLGVYFCSQSTHVPLTFGAGTKLELKR
notes: also called analog of CTRND05
binding result (human UCN2 peptide [1]): no binding (tested: 100 nM)
binding result (human UCN3 peptide): no binding (tested: 100 nM)

B2: PR006669 (antibody, human IgG1, kappa, V domains shown)
VH: EVQLVESGGGLVQPGGSLRLSCAASGFTFSDNWMSWVRQAPGKGLEWVANIKQDGSENYYVDSVKGRFTISRDNAKNSLYLQMNSLRAEDTAVYYCSRGLALWGWGQGTLVTVSS
VL: DIVMTHSPLSLPVTPGDPASISCRSSQSLLHSTGYNYLDWYLQKPGQSPQLLIYLGSNRASGVPDRFSGSGSGTDFTLKFIRVEAEDVGVYYCMQALQTPYTFGQGTKLEIKR
hCRHR1 Luciferase Reporter Assay IC50 [2]: 7.38 nM
mCrhr1 Luciferase Reporter Assay IC50 [2]: 28.9 nM

B5: PR004290 (antibody, human IgG1, kappa, V domains shown)
VH: EVQLVESGGVLVQPGGSLRLSCAASGFTFSSYWMTWVRQAPGKGLEWVANIKQDGSEKYYVDSVKGRFTISRDNAKNSLFLQMNSLRAEDTAVYYCARTLIFDYWGQGTLVTVSS
VL: DIVMTQSPLSLPVTPGEPASISCRSSQSLLHSTGYNSLEWYLQKPGQSPQLLIYLGSNRASGVPDRFSGSGSGTDFTLKISRVEAEDVGIYYCMQTLQTPITFGQGTRLEIKR
notes: Series 1; human IgG1 wildtype Fc; also called Hybridoma Clone 28b3
CHO-CRE-hCRHR1 0.5 nM CRH IC50 [3]: 5.41 nM and 3.49 nM
EC50 (CRH (NT Biotin)): 0.05 nM
EC50 (CRH (CT Biotin)): 0.065 nM
EC50 (hUCN1 (NT Biotin)): 1.59 nM
EC50 (hUCN1 (CT Biotin)): > 1 nM

B8: PR302341-34 (antibody, human IgG1, kappa, V domains shown)
VH: QVQLVQSGAEVKKPGASVKVSCKASGYTFTDYFMKWVRQAPGQGLEWMGVINPNQGDIFYNQKFKGRVTMTVDKSISTAYMELSRLRSDDTAVYYCARGTDRALFAYWGQGTLVTVSS
VL: DVVMTQSPLSLPVTLGQPASISCRSGQSIVHSDANTYLEWYQQRPGQSPRLLIYKVSNRFSGVPDRFSGSGSGTDFTLKISRVEAEDLGVYYCFQGSHIPWTFGGGTKVEIKR
notes: Humanized, PTM-removed variant of PR302341
CHO-CRE-hCRHR1 0.5 nM CRH IC50 [3]: 0.616 nM
CHO-CRE-hCRHR1 1 nM hUCH1 IC50 (human UCN1 peptide): 21.9 nM and 30 nM
Kd (biotinylated CRH): < 0.001 nM
EC50 (CRH (NT Biotin)): 0.025 nM and 0.038 nM
EC50 (CRH (CT Biotin)): 0.027 nM
EC50 (hUCN1 (NT Biotin)): 0.019 nM and 0.016 nM
EC50 (hUCN1 (CT Biotin)): 0.03 nM and 0.022 nM
binding result (human UCN2 peptide [4]): no binding (tested: 100 nM)

B9: PR302309-8 (antibody, human IgG1, kappa, V domains shown)
VH: QIQLVQSGSELKKPGASVKVSCKASGYTFTNYGMNWVRQAPGQGLEWMGWINTYTGEPIYTDDFKGRFVFSLDTSVSTAYLQISSLKAEDTAVYYCSRSTMITTGGVFAYWGQGTLVTVSS
VL: DVVMTQSPLSLPVTLGQPASISCRSSQTIVHSDGNTYLEWYQQRPGQSPRLLIYKVSNRFSGVPDRFSGSGSGTDFTLKISRVEAEDLGVYYCFQGSHVPWTFGGGTKVEIKR
notes: Humanized variant of PR302309
binding result (human UCN2 peptide [1]): no binding (tested: 100 nM)
binding result (human UCN3 peptide): no binding (tested: 100 nM)

B10: PR302309-11 (antibody, human IgG1, kappa, V domains shown)
VH: QIQLVQSGSELKKPGASVKVSCKASGYTFTNYGMNWVRQAPGQGLEWMGWINTYTGEPIYTDDFKGRFVFSLDTSVSTAYLQISSLKAEDTAVYYCSRSTMITTGGVFAYWGQGTLVTVSS
VL: DIVMTQTPLSSPVTLGQPASISCRSSQTIVHSDGNTYLEWLQQRPGQPPRLLIYKVSNRFSGVPDRFSGSGAGTDFTLKISRVEAEDVGVYYCFQGSHVPWTFGGGTKVEIKR
notes: Humanized variant of PR302309
binding result (human UCN2 peptide [1]): no binding (tested: 100 nM)
binding result (human UCN3 peptide): no binding (tested: 100 nM)

The next lines start with the values.

hCRHR1 Luciferase Reporter Assay IC50 [2]: 13.2 nM
mCrhr1 Luciferase Reporter Assay IC50 [2]: 76.2 nM
B3: PR006745 (antibody, human IgG1, kappa, V domains shown)
VH: EVQLVESGGGLVQPGGSLRLSCAASGFTFSDNWMSWVRQAPGKGLEWVANIKQDASENYYVDSVKGRFTISRDNAKNSLYLQMNSLRAEDTAVYYCSRGLALWGWGQGTLVTVSS
VL: DIVMTHSPLSLPVTPGDPASISCRSSQSLLHSTGYNYLDWYLQKPGQSPQLLIYLGSNRASGVPDRFSGSGSGTDFTLKFIRVEAEDVGVYYCMQALQTPYTFGQGTKLEIKR

hCRHR1 Luciferase Reporter Assay IC50 [2]: 10 nM
mCrhr1 Luciferase Reporter Assay IC50 [2]: 46.4 nM
B4: PR006746 (antibody, human IgG1, kappa, V domains shown)
VH: EVQLVESGGGLVQPGGSLRLSCAASGFTFSDNWMSWVRQAPGKGLEWVANIKQDSSENYYVDSVKGRFTISRDNAKNSLYLQMNSLRAEDTAVYYCSRGLALWGWGQGTLVTVSS
VL: DIVMTHSPLSLPVTPGDPASISCRSSQSLLHSTGYNYLDWYLQKPGQSPQLLIYLGSNRASGVPDRFSGSGSGTDFTLKFIRVEAEDVGVYYCMQALQTPYTFGQGTKLEIKR

binding result (human UCN2 peptide [1]): no binding (tested: 100 nM)
binding result (human UCN3 peptide): no binding (tested: 100 nM)
B6: PR302064 (antibody, human IgG1, kappa, V domains shown)
VH: EMQLVESGGGLVKPGGSLRLSCAASGFTFSNYWMNWVRQAPGKGLEWVAEIRLKSNNYATHYAESVKGRFTISRDDSKSTVYLQMNSLKTEDTAVYYCTVGTLVYWGQGTLVTVSS
VL: DIVLTQSPDSLAVSLGERATINCRASQSVSTSTYNYMHWFQQKPGQPPKLLIKFASNLESGVPDRFSGSGSGTDFTLTISSLQAEDTAVYYCQHSWEIPYTFGQGTKLEIKR
notes: Humanized variant of PR301777; human IgG1-WT-Fc

binding result (human UCN2 peptide [1]): no binding (tested: 100 nM)
binding result (human UCN3 peptide): no binding (tested: 100 nM)
B7: PR005660 (antibody, human IgG1, kappa, V domains shown)
VH: EVQLVESGGVLVQPGGSLRLSCAASGFTFSSYWMTWVRQAPGKGLEWVANIKQEGSEKYYVDSVKGRFTISRDNAKNSLFLQMNSLRAEDTAVYYCARTLIFDYWGQGTLVTVSS
VL: DIVMTQSPLSLPVTPGEPASISCRSSQSLLHSTGYQSLEWYLQKPGQSPQLLIYLGSNRASGVPDRFSGSGSGTDFTLKISRVEAEDVGIYYCMQTLQTPITFGQGTRLEIKR
notes: ΔPTM variant of PR004290

CHO-CRE-hCRHR1 0.5 nM CRH IC50 [3]: 0.267 nM
CHO-CRE-hCRHR1 1 nM hUCH1 IC50 (human UCN1 peptide): 33 nM
hUCN1 IC50/ CRH IC50 (human UCN1 peptide): 124 fold
Kd (biotinylated CRH): < 0.001 nM
koff (biotinylated CRH): < 1e-07 s⁻¹
kon (biotinylated CRH): 2.63e+06 M⁻¹ s⁻¹
EC50 (CRH (NT Biotin)): 0.052 nM
EC50 (CRH (CT Biotin)): 0.037 nM
EC50 (hUCN1 (NT Biotin)): 0.026 nM
EC50 (hUCN1 (CT Biotin)): 0.032 nM
binding result (human UCN2 peptide [4]): no binding (tested: 100 nM)
B11: PR302341-28 (antibody, human IgG1, kappa, V domains shown)
VH: QVQLVQSGAEVKKPGASVKVSCKASGYTFTDYFMKWVRQAPGQGLEWMGVINPNQGDIFYNQKFKGRVTMTVDKSISTAYMELSRLRSDDTAVYYCARGTDRALFAYWGQGTLVTVSS
VL: DVVMTQSPLSLPVTLGQPASISCRSGQSIVHSDGNTYLEWYQQRPGQSPRLLIYKVSNRFSGVPDRFSGSGSGTDFTLKISRVEAEDLGVYYCFQGSHIPWTFGGGTKVEIKR
notes: as for B8
